T1: SHANK1, Q9Y566
T1 sequence (Q9Y566 658-767, limits assumed, looked up): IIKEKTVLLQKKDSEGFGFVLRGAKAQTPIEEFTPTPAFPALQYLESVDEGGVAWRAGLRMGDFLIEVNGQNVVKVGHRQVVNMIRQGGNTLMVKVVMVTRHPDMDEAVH

T2: DFNB31_2, Q9P202
T2 sequence (Q9P202 274-371, limits assumed, looked up): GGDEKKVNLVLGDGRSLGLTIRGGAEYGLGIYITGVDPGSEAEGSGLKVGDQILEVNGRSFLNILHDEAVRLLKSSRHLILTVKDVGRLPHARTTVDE

T3: ARHGEF11, O15085
T3 sequence (O15085 42-136, limits assumed, looked up): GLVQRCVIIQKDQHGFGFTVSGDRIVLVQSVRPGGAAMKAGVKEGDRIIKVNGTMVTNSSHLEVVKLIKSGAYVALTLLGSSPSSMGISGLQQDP

T4: PDZRN3_1, Q9UPQ7
T4 sequence (Q9UPQ7 244-349, limits assumed, looked up): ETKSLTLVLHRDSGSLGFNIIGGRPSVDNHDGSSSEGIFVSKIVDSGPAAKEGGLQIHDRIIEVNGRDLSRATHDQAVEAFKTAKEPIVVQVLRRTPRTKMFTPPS

T5: LNX2_3, Q8N448
T5 sequence (Q8N448 463-564, limits assumed, looked up): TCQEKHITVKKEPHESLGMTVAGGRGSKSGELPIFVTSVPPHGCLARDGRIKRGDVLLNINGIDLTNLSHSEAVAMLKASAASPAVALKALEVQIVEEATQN

T6: GRIP1_2, Q9Y3R0
T6 sequence (Q9Y3R0 145-248, limits assumed, looked up): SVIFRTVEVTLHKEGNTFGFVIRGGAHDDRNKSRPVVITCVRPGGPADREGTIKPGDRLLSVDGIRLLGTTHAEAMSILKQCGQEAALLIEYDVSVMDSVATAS

T7: SNTB1, Q13884
T7 sequence (Q13884 107-205, limits assumed, looked up): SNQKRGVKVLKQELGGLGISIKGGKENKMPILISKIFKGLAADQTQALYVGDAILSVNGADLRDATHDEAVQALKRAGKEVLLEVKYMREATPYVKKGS

T8: PTPN13_1, Q12923
T8 sequence (Q12923 1088-1188, limits assumed, looked up): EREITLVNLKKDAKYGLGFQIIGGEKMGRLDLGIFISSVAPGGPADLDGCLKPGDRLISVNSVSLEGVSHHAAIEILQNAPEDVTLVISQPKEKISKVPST

T9: LIN7B, Q9HAP6
T9 sequence (Q9HAP6 88-185, limits assumed, looked up): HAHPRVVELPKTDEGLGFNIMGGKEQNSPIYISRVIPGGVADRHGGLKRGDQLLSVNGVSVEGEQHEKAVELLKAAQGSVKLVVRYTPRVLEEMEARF

T10: TX1BP3, O14907
T10 sequence (O14907 10-122, limits assumed, looked up): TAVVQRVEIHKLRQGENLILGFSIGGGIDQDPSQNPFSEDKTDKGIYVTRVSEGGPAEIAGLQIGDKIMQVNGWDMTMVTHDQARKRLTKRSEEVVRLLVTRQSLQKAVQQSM

T11: PDZD2_2, O15018
T11 sequence (O15018 329-429, limits assumed, looked up): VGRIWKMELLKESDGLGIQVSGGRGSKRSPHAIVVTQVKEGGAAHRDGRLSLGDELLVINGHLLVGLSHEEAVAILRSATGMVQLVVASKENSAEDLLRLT


Experiments:
Experiment in all cases: holdup assay
Set-up in all cases: key: below the threshold = too weak to quantify, mostly under pKd 3.1 to 4
Details in all cases: plain residues with an end cap or a label only (N-terminal biotin on a linker: ado-ado)
SCRIB_2, Q14160 = biological target: SCRIB_2, Q14160
SHANK1, Q9Y566 = biological target: T1, SHANK1, Q9Y566
TJP2_1, Q9UDY2 = biological target: TJP2_1, Q9UDY2
Inadl_5, Q8NI35 = biological target: Inadl_5, Q8NI35
LAP2, Q96RT1 = biological target: LAP2, Q96RT1
DFNB31_2, Q9P202 = biological target: T2, DFNB31_2, Q9P202
ARHGEF11, O15085 = biological target: T3, ARHGEF11, O15085
PDZRN3_1, Q9UPQ7 = biological target: T4, PDZRN3_1, Q9UPQ7
Inadl_4, Q8NI35 = biological target: Inadl_4, Q8NI35
LNX2_3, Q8N448 = biological target: T5, LNX2_3, Q8N448
GRIP1_2, Q9Y3R0 = biological target: T6, GRIP1_2, Q9Y3R0
MAGI3_2, Q5TCQ9 = biological target: MAGI3_2, Q5TCQ9
Inadl_3, Q8NI35 = biological target: Inadl_3, Q8NI35
HTRA1, Q92743 = biological target: HTRA1, Q92743
SNTB1, Q13884 = biological target: T7, SNTB1, Q13884
PICK1, Q9NRD5 = biological target: PICK1, Q9NRD5
Inadl_8, Q8NI35 = biological target: Inadl_8, Q8NI35
PTPN13_1, Q12923 = biological target: T8, PTPN13_1, Q12923
GRIP2_3, Q9C0E4 = biological target: GRIP2_3, Q9C0E4
GRASP, Q7Z6J2 = biological target: GRASP, Q7Z6J2
Inadl_10, Q8NI35 = biological target: Inadl_10, Q8NI35
LIN7B, Q9HAP6 = biological target: T9, LIN7B, Q9HAP6
AHNAK1, Q09666 = biological target: AHNAK1, Q09666
TX1BP3, O14907 = biological target: T10, TX1BP3, O14907
PARD3_3, Q8TEW0 = biological target: PARD3_3, Q8TEW0
PDZD2_2, O15018 = biological target: T11, PDZD2_2, O15018

HTRA1, Q92743, sequence (Q92743 360-477): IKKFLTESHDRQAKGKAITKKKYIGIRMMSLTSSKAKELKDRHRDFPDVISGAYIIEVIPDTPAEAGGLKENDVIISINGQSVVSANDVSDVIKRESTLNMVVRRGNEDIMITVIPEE
GRIP2_3, Q9C0E4, sequence (Q9C0E4 238-339): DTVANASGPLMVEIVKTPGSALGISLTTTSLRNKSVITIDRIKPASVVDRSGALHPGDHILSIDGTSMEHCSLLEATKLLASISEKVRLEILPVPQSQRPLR
Inadl_3, Q8NI35, sequence (Q8NI35 359-469): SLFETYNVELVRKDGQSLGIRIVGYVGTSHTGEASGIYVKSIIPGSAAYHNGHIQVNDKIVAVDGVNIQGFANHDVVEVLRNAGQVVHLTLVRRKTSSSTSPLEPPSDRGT
PICK1, Q9NRD5, sequence (Q9NRD5 17-115): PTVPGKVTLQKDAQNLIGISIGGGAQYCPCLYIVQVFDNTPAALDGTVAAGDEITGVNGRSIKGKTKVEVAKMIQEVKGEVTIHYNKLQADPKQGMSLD
LAP2, Q96RT1, sequence (Q96RT1 other isoform, or with tags, fused parts or gaps): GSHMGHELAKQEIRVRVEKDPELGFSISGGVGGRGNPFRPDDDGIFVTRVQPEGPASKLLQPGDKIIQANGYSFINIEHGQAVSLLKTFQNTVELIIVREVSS
SCRIB_2, Q14160, sequence (Q14160 857-960): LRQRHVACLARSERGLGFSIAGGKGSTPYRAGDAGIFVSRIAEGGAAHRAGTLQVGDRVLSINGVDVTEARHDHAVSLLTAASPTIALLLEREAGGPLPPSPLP
Inadl_10, Q8NI35, sequence (Q8NI35 1673-1763): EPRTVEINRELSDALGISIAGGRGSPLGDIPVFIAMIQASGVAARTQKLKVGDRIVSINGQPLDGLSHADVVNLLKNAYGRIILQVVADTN
Inadl_4, Q8NI35, sequence (Q8NI35 547-651): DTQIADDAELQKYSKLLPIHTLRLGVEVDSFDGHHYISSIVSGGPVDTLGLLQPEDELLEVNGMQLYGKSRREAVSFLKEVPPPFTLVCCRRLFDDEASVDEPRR
TJP2_1, Q9UDY2, sequence (Q9UDY2 24-128): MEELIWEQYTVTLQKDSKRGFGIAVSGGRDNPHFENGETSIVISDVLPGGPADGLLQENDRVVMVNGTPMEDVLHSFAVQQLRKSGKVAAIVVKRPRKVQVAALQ
PARD3_3, Q8TEW0, sequence (Q8TEW0 582-685): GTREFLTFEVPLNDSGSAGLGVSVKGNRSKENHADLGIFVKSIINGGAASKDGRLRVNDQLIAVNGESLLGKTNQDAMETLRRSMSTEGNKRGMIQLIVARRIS
Inadl_5, Q8NI35, sequence (Q8NI35 673-780): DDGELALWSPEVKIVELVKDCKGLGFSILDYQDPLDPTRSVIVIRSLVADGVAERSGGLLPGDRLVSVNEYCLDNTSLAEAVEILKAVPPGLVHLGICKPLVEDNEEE
GRASP, Q7Z6J2, sequence (Q7Z6J2 96-193): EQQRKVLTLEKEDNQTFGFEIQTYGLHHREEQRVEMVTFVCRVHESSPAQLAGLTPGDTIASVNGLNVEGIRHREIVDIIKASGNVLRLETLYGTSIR
AHNAK1, Q09666, sequence (Q09666 4-100): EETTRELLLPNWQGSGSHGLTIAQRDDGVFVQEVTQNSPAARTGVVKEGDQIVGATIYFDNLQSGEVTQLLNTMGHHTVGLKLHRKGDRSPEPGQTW
Inadl_8, Q8NI35, sequence (Q8NI35 1425-1530): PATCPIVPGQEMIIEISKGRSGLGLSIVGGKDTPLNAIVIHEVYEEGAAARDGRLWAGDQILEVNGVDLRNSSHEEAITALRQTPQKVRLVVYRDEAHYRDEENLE
MAGI3_2, Q5TCQ9, sequence (Q5TCQ9 398-503): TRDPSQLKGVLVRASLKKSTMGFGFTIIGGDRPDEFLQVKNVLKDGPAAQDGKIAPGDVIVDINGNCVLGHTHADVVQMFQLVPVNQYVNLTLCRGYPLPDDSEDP

pKd (SCRIB_2, Q14160)	pKd (SHANK1, Q9Y566)	pKd (TJP2_1, Q9UDY2)	pKd (Inadl_5, Q8NI35)	pKd (LAP2, Q96RT1)	pKd (DFNB31_2, Q9P202)	pKd (ARHGEF11, O15085)	pKd (PDZRN3_1, Q9UPQ7)	pKd (Inadl_4, Q8NI35)	pKd (LNX2_3, Q8N448)	pKd (GRIP1_2, Q9Y3R0)	pKd (MAGI3_2, Q5TCQ9)	pKd (Inadl_3, Q8NI35)	pKd (HTRA1, Q92743)	pKd (SNTB1, Q13884)	pKd (PICK1, Q9NRD5)	pKd (Inadl_8, Q8NI35)	pKd (PTPN13_1, Q12923)	pKd (GRIP2_3, Q9C0E4)	pKd (GRASP, Q7Z6J2)	Binder	other results
4.1	4.16	4.82	3.6	below the threshold	below the threshold	4.19	below the threshold	below the threshold	below the threshold	below the threshold	5.37	below the threshold	below the threshold	below the threshold	below the threshold	3.72	below the threshold	below the threshold	4.35	RFQQRMQTHV [KIRREL1, Q96J84]	pKd (Inadl_10, Q8NI35): below the threshold; pKd (LIN7B, Q9HAP6): below the threshold; pKd (AHNAK1, Q09666): below the threshold; pKd (TX1BP3, O14907): 4.85; pKd (PARD3_3, Q8TEW0): below the threshold; pKd (PDZD2_2, O15018): 4.4
3.62	below the threshold	4.19	3.82	4.17	3.52	3.72	3.78	below the threshold	below the threshold	below the threshold	4.27	3.86	4.51	3.97	below the threshold	4.34	below the threshold	below the threshold	4.44	APIAGFSSFV [SDK2, Q58EX2]	pKd (Inadl_10, Q8NI35): 4.25; pKd (LIN7B, Q9HAP6): below the threshold; pKd (AHNAK1, Q09666): below the threshold; pKd (TX1BP3, O14907): 4.84; pKd (PARD3_3, Q8TEW0): 3.56; pKd (PDZD2_2, O15018): 5.54
below the threshold	below the threshold	below the threshold	below the threshold	below the threshold	below the threshold	below the threshold	below the threshold	below the threshold	below the threshold	below the threshold	below the threshold	below the threshold	below the threshold	3.58	below the threshold	below the threshold	below the threshold	below the threshold	below the threshold	EPQYQPGENL [SRC, P12931]	pKd (Inadl_10, Q8NI35): below the threshold; pKd (LIN7B, Q9HAP6): below the threshold; pKd (AHNAK1, Q09666): below the threshold; pKd (TX1BP3, O14907): below the threshold; pKd (PARD3_3, Q8TEW0): 3.6; pKd (PDZD2_2, O15018): below the threshold
